Results reported in patent US20140186370A1 (Kyowa Kirin, published 2014).

Biological target: T1, H3 protein ectodomain from vaccinia virus strain Lister with C-terminal 6-HIS tag, expressed from pET21a(+) (vaccinia virus strain Lister, UniProt P20497 1-269)
T1 chain: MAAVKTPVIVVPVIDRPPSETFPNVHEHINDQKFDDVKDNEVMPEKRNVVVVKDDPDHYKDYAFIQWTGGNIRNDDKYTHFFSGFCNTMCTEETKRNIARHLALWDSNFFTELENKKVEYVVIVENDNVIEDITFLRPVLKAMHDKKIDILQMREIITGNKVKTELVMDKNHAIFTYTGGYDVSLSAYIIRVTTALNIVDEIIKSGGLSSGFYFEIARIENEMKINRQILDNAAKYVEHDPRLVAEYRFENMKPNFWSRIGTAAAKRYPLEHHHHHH
Assay: Western blot on E. coli lysates (FIG. 12A)

B1: 130D67 human anti-H3L monoclonal antibody (antibody, V domains shown)
VH: EVQLVESGGGLVQPGRSLRLSCAASGFTFDDYAIHWVRQAPGKGLEWVSGISWNGRSIGYADSVKGRFTISRDNAKNSLYLQMNSLRAEDTALYYCAKDIGFYGSGSLDYWGQGTLVTVSS
VL: not shown
B1: binds.
